Biological target: SARS-CoV-2 (2019-nCoV) Spike S1-His Recombinant Protein (HPLC-verified), Sino Biological Catalog Number 40591-V08H (SARS-CoV-2) (UniProt P0DTC2)

Galanthus nivalis agglutinin (GNA) (from UniProt P30617 24-128)
percent of S1 depleted at 15 minutes: > 90%

Reference: patent publication US20240399042A1
